Measurements from paper PMC10033279.

Substrate: NC(=O)C1=CN([C@@H]2O[C@H](COP(=O)(O)OP(=O)(O)OC[C@H]3O[C@@H](n4cnc5c(N)ncnc54)[C@H](O)[C@@H]3O)[C@@H](O)[C@H]2O)C=CC1
Assay: purified protein
Format: biochemical, Pseudomonas aeruginosa
Conditions: varied 1,4-benzoquinone, 20 mM KPi, 200 mM NaCl, pH 7.0, 25 °C

B1: NADH:quinone oxidoreductase (NQO), PA1024 (Pseudomonas aeruginosa PAO1) (protein)
chain: MGVFRTRFTETFGVEHPIMQGGMQWVGRAEMAAAVANAGGLATLSALTQPSPEALAAEIARCRELTDRPFGVNLTLLPTQKPVPYAEYRAAIIEAGIRVVETAGNDPGEHIAEFRRHGVKVIHKCTAVRHALKAERLGVDAVSIDGFECAGHPGEDDIPGLVLLPAAANRLRVPIIASGGFADGRGLVAALALGADAINMGTRFLATRECPIHPAVKAAIRAADERSTDLIMRSLRNTARVARNAISQEVLAIEARGGAGYADIAALVSGQRGRQVYQQGDTDLGIWSAGMVQGLIDDEPACAELLRDIVEQARQLVRQRLEGMLAGV
notes: full-length gene PA1024 in pET20b(+), expressed in E. coli Rosetta(DE3)pLysS, purified; EC 1.6.5.9
Km: 70 ± 10 µM
kcat: 27 ± 1 s⁻¹
